Results from US12630600B2 (MEDIMMUNE LIMITED, priority 2022, dated 2026).
Starred links: 1 amine or outer side, 2 acyl side, 3 side chain; linkers in the order of their positions; H or OH if unused. Non-standard residues stand in square brackets, D forms with d. Groups on a side chain read outwards from the residue. No end group written: not given here. *: point of attachment. C20 diacid = O=C(O)CCCCCCCCCCCCCCCCCCC(=O)*; C18 diacid = O=C(O)CCCCCCCCCCCCCCCCC(=O)*; γGlu = O=C(O)[C@H](CCC(=O)[*:2])N[*:1]; αMeF = C[C@](N)(Cc1ccccc1)C(=O)O; AEEA = NCCOCCOCC(=O)O; Aib = CC(C)(N)C(=O)O

Assays:
human GLP-1 receptor = human GLP-1 receptor (human, UniProt P43220); test: cell-based or functional assay
human glucagon receptor = human glucagon receptor (human, UniProt P47871); test: cell-based or functional assay

Row | Binder | hGLP-1R EC50 (pM) (human GLP-1 receptor) | hGluc-R EC50 (pM) (human glucagon receptor)
1 | H[Aib]HGS[αMeF]TSDVSK[αMeF]LDSR[Aib]AK([AEEA-AEEA-γGlu-γGlu-C20 diacid])DFVQ[Aib]IANT-NH2 (N-terminus assumed; SMILES CC[C@H](C)[C@H](NC(=O)C(C)(C)NC(=O)[C@H](CCC(N)=O)NC(=O)[C@@H](NC(=O)[C@H](Cc1ccccc1)NC(=O)[C@H](CC(=O)O)NC(=O)[C@H](CCCCNC(=O)COCCOCCNC(=O)COCCOCCNC(=O)CC[C@H](NC(=O)CC[C@H](NC(=O)CCCCCCCCCCCCCCCCCCC(=O)O)C(=O)O)C(=O)O)NC(=O)[C@H](C)NC(=O)C(C)(C)NC(=O)[C@H](CCCNC(=N)N)NC(=O)[C@H](CO)NC(=O)[C@H](CC(=O)O)NC(=O)[C@H](CC(C)C)NC(=O)[C@](C)(Cc1ccccc1)NC(=O)[C@H](CCCCN)NC(=O)[C@H](CO)NC(=O)[C@@H](NC(=O)[C@H](CC(=O)O)NC(=O)[C@H](CO)NC(=O)[C@@H](NC(=O)[C@](C)(Cc1ccccc1)NC(=O)[C@H](CO)NC(=O)CNC(=O)[C@H](Cc1c[nH]cn1)NC(=O)C(C)(C)NC(=O)[C@@H](N)Cc1c[nH]cn1)[C@@H](C)O)C(C)C)C(C)C)C(=O)N[C@@H](C)C(=O)N[C@@H](CC(N)=O)C(=O)N[C@H](C(N)=O)[C@@H](C)O) [Peptide 221] | 122 | 123
2 | H[Aib]HGS[αMeF]TSDVSK[αMeF]LDSRAAK([AEEA-AEEA-γGlu-γGlu-C20 diacid])DFVEWIANT-NH2 (N-terminus assumed; SMILES CC[C@H](C)[C@H](NC(=O)[C@H](Cc1c[nH]c2ccccc12)NC(=O)[C@H](CCC(=O)O)NC(=O)[C@@H](NC(=O)[C@H](Cc1ccccc1)NC(=O)[C@H](CC(=O)O)NC(=O)[C@H](CCCCNC(=O)COCCOCCNC(=O)COCCOCCNC(=O)CC[C@H](NC(=O)CC[C@H](NC(=O)CCCCCCCCCCCCCCCCCCC(=O)O)C(=O)O)C(=O)O)NC(=O)[C@H](C)NC(=O)[C@H](C)NC(=O)[C@H](CCCNC(=N)N)NC(=O)[C@H](CO)NC(=O)[C@H](CC(=O)O)NC(=O)[C@H](CC(C)C)NC(=O)[C@](C)(Cc1ccccc1)NC(=O)[C@H](CCCCN)NC(=O)[C@H](CO)NC(=O)[C@@H](NC(=O)[C@H](CC(=O)O)NC(=O)[C@H](CO)NC(=O)[C@@H](NC(=O)[C@](C)(Cc1ccccc1)NC(=O)[C@H](CO)NC(=O)CNC(=O)[C@H](Cc1c[nH]cn1)NC(=O)C(C)(C)NC(=O)[C@@H](N)Cc1c[nH]cn1)[C@@H](C)O)C(C)C)C(C)C)C(=O)N[C@@H](C)C(=O)N[C@@H](CC(N)=O)C(=O)N[C@H](C(N)=O)[C@@H](C)O) [Peptide 213] | 534 | 141
3 | H[Aib]HGS[αMeF]TSDVSK[αMeF]LDSRAAK([AEEA-AEEA-γGlu-C20 diacid])D[αMeF]VQWIANT-NH2 (N-terminus assumed; SMILES CC[C@H](C)[C@H](NC(=O)[C@H](Cc1c[nH]c2ccccc12)NC(=O)[C@H](CCC(N)=O)NC(=O)[C@@H](NC(=O)[C@](C)(Cc1ccccc1)NC(=O)[C@H](CC(=O)O)NC(=O)[C@H](CCCCNC(=O)COCCOCCNC(=O)COCCOCCNC(=O)CC[C@H](NC(=O)CCCCCCCCCCCCCCCCCCC(=O)O)C(=O)O)NC(=O)[C@H](C)NC(=O)[C@H](C)NC(=O)[C@H](CCCNC(=N)N)NC(=O)[C@H](CO)NC(=O)[C@H](CC(=O)O)NC(=O)[C@H](CC(C)C)NC(=O)[C@](C)(Cc1ccccc1)NC(=O)[C@H](CCCCN)NC(=O)[C@H](CO)NC(=O)[C@@H](NC(=O)[C@H](CC(=O)O)NC(=O)[C@H](CO)NC(=O)[C@@H](NC(=O)[C@](C)(Cc1ccccc1)NC(=O)[C@H](CO)NC(=O)CNC(=O)[C@H](Cc1c[nH]cn1)NC(=O)C(C)(C)NC(=O)[C@@H](N)Cc1c[nH]cn1)[C@@H](C)O)C(C)C)C(C)C)C(=O)N[C@@H](C)C(=O)N[C@@H](CC(N)=O)C(=O)N[C@H](C(N)=O)[C@@H](C)O) [Peptide 215] | 7620 | 2610
4 | H[Aib]HGS[αMeF]TSDVSK[αMeF]LDSQAAK([AEEA-AEEA-γGlu-γGlu-C18 diacid])DFVEWIANT-NH2 (N-terminus assumed; SMILES CC[C@H](C)[C@H](NC(=O)[C@H](Cc1c[nH]c2ccccc12)NC(=O)[C@H](CCC(=O)O)NC(=O)[C@@H](NC(=O)[C@H](Cc1ccccc1)NC(=O)[C@H](CC(=O)O)NC(=O)[C@H](CCCCNC(=O)COCCOCCNC(=O)COCCOCCNC(=O)CC[C@H](NC(=O)CC[C@H](NC(=O)CCCCCCCCCCCCCCCCC(=O)O)C(=O)O)C(=O)O)NC(=O)[C@H](C)NC(=O)[C@H](C)NC(=O)[C@H](CCC(N)=O)NC(=O)[C@H](CO)NC(=O)[C@H](CC(=O)O)NC(=O)[C@H](CC(C)C)NC(=O)[C@](C)(Cc1ccccc1)NC(=O)[C@H](CCCCN)NC(=O)[C@H](CO)NC(=O)[C@@H](NC(=O)[C@H](CC(=O)O)NC(=O)[C@H](CO)NC(=O)[C@@H](NC(=O)[C@](C)(Cc1ccccc1)NC(=O)[C@H](CO)NC(=O)CNC(=O)[C@H](Cc1c[nH]cn1)NC(=O)C(C)(C)NC(=O)[C@@H](N)Cc1c[nH]cn1)[C@@H](C)O)C(C)C)C(C)C)C(=O)N[C@@H](C)C(=O)N[C@@H](CC(N)=O)C(=O)N[C@H](C(N)=O)[C@@H](C)O) [Peptide 210] | 156 | 93.7
5 | H[Aib]HGS[αMeF]TSDVSK[αMeF]LDSRAAKDFVQ[Aib]IANT-NH2 (not fully specified (residue 20)) [Peptide 222] | 151 | 244

Now from value to binder:

Row | hGLP-1R EC50 (pM) (human GLP-1 receptor) | hGluc-R EC50 (pM) (human glucagon receptor) | Binder
6 | 34.9 | 145 | H[Aib]HGS[αMeF]TSDVSK[αMeF]LDSRAAK([AEEA-AEEA-γGlu-C18 diacid])D[αMeF]VQ[Aib]IANT-NH2 (N-terminus assumed; SMILES CC[C@H](C)[C@H](NC(=O)C(C)(C)NC(=O)[C@H](CCC(N)=O)NC(=O)[C@@H](NC(=O)[C@](C)(Cc1ccccc1)NC(=O)[C@H](CC(=O)O)NC(=O)[C@H](CCCCNC(=O)COCCOCCNC(=O)COCCOCCNC(=O)CC[C@H](NC(=O)CCCCCCCCCCCCCCCCC(=O)O)C(=O)O)NC(=O)[C@H](C)NC(=O)[C@H](C)NC(=O)[C@H](CCCNC(=N)N)NC(=O)[C@H](CO)NC(=O)[C@H](CC(=O)O)NC(=O)[C@H](CC(C)C)NC(=O)[C@](C)(Cc1ccccc1)NC(=O)[C@H](CCCCN)NC(=O)[C@H](CO)NC(=O)[C@@H](NC(=O)[C@H](CC(=O)O)NC(=O)[C@H](CO)NC(=O)[C@@H](NC(=O)[C@](C)(Cc1ccccc1)NC(=O)[C@H](CO)NC(=O)CNC(=O)[C@H](Cc1c[nH]cn1)NC(=O)C(C)(C)NC(=O)[C@@H](N)Cc1c[nH]cn1)[C@@H](C)O)C(C)C)C(C)C)C(=O)N[C@@H](C)C(=O)N[C@@H](CC(N)=O)C(=O)N[C@H](C(N)=O)[C@@H](C)O) [Peptide 225]
7 | 70.5 | 27.2 | H[Aib]HGS[αMeF]TSDVSK[αMeF]LDSRAAK([AEEA-AEEA-γGlu-C18 diacid])D[αMeF]VE[Aib]IANT-NH2 [Peptide 227]
8 | 200 | 177 | H[Aib]HGS[αMeF]TSDVSK[αMeF]LDSRAAKD[αMeF]IA[Aib]IANT-NH2 (not fully specified (residue 20)) [Peptide 228]
